Patent publication US20100298415

Experiments:
Test in all cases: competition
Conditions in all cases: PS three linkages at 5' and 3' ends of both strands; 5' C6 amino linker conjugated to Co(III) Schiff base; not inhibited at 1 uM; EMSA
[1] = molecular target: Lef-1 (UniProt Q9UJU2)
[2] = molecular target: T1, p105 (NF-kB) (UniProt P19838)
T1 sequence: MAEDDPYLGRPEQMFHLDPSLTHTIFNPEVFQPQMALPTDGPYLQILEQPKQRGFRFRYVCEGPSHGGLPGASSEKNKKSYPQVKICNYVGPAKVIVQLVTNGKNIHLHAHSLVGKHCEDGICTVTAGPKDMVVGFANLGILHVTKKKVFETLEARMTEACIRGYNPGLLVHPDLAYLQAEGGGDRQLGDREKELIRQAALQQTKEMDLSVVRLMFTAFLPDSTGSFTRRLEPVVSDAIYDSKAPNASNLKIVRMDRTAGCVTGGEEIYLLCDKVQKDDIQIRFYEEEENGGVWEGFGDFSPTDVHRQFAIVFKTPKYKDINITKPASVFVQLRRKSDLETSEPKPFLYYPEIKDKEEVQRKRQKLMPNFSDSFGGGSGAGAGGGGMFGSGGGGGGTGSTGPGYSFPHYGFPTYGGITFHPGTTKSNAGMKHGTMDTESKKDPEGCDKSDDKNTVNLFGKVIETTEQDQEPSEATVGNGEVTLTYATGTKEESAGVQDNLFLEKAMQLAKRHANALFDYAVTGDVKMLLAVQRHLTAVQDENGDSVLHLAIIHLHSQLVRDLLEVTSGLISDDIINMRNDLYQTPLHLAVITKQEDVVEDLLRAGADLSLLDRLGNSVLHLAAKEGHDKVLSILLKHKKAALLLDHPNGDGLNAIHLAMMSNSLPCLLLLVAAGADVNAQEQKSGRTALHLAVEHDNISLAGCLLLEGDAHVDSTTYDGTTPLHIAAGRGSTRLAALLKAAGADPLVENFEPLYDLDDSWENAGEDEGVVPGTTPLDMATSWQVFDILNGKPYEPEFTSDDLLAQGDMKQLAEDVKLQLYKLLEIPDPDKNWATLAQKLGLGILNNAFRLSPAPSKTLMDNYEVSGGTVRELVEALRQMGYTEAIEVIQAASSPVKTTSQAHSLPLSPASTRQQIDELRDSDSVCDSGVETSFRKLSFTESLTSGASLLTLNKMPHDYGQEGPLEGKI

[3] = molecular target: T2, MitF (UniProt O75030)
T2 sequence: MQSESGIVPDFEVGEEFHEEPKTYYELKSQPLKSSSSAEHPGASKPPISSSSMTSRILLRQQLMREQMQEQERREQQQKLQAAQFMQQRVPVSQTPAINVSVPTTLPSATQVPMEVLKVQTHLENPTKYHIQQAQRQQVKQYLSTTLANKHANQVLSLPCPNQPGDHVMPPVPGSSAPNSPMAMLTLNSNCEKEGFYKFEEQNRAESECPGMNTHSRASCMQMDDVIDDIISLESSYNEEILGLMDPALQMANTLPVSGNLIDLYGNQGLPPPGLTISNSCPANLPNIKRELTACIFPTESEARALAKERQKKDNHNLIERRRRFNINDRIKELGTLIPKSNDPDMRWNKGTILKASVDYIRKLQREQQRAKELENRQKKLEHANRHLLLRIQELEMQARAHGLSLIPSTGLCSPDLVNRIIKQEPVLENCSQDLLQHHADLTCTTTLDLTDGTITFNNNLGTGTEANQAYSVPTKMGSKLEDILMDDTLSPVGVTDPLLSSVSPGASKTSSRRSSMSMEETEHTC

Measured: activity

Lef-1, sequence (Q9UJU2 whole entry): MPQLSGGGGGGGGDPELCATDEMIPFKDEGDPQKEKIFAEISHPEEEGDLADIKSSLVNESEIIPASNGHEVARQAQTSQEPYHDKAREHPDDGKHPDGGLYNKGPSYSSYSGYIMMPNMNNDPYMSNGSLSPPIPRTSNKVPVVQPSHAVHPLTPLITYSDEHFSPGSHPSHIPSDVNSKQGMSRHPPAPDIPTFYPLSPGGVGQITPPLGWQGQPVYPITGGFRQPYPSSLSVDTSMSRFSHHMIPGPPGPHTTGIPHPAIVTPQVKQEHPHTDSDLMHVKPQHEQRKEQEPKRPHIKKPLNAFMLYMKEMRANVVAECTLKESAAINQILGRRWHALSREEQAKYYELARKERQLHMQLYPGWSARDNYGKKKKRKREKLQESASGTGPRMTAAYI

TACGACAGGTGTTGGGA (double strand) [Co(III)-Ebox]
> 1 µM: all assays above
